Experimental data: the DeepSol protein solubility set

Assay: soluble on expression in E. coli; label from the status in PepcDB or PDB records

Sequence	soluble on expression in E. coli
DNNNTIEEQLNTLEKYSQGRLGVALINTEDNSQITYRGEERFAMASTSKVMAVAAVLKASEKQAGLLDKNITIKKSDLVAYSPITEKHLTTGMTLAELSAATLQYSDNTAMNKILDYLGGPAKVTQFARSINDVTYRLDRKEPELNTAIHGDPRDTTSPIAMAKSLQALTLGDALGQSQRQQLVTWLKGNTTGDNSIKAGLPKHWVVGDKTGSGDYGTTNDIAVIWPENHAPLILVVYFTQQEQNAKYRKDIIAKAAEIVTKEISNSPQTK	soluble
KKLDLLITGVGGQGAILASDIIGKAAVISGIPIRAAETHGMAQRGGSVVNHIRLGSDLGSMIPKKGADIMLALEPMEAVRYLDFLKDGGVIIVNTQSIIPVTVTSGLSKYPEVQEILDALSEKYVVKAFNADELAHEAGSRLAMNVAMVGAVSGYLPISKEVLLESVKVLVPKKTIEINIRAFEMGREEVEE	not soluble
MPAKVLINGYGSIGKRVADAVSMQDDMEVIGVTKTKPDFEARLAVEKGYKLFVAIPDNERVKLFEDAGIPVEGTILDIIEDADIVVDGAPKKIGKQNLENIYKPHKVKAILQGGEKAKDVEDNFNALWSYNRCYGKDYVRVVSCNTTGLCRILYAINSIADIKKARIVLVRRAADPNDDKTGPVNAITPNPVTVPSHHGPDVVSVVPEFEGKILTSAVIVPTTLMHMHTLMVEVDGDVSRDDILEAIKKTPRIITVRAEDGFSSTAKIIEYGRDLGRLRYDINELVVWEESINVLENEIFLMQAVHQESIVIPENIDCIRAMLQMEEDNFKSIEKTNKAMGIQ	soluble
LKKKVGIISLGCPKNLVDSEIMLGLLKKNDFEITSDSEEANVIIVNTCGFIESAKEESINTILEMANYKNKNCEMLIVAGCLAQRYKDEIIKEMPEVDAVVGVSGYDEIAKVIEEFYSKKNDKNDKEKAVFHKDTLSVEYLNNERLLSTNSGYAYLKISEGCDNRCTYCAIPYIRGPYRSRKMEDIISEAEFLAGKGVKEVILVAQDVTVYGKDLYGQKKLVELVREVSGIEGIEWIRLLYTYPEEIDEELIKEIANNEKVVKYLDIPIQHASDKILKLMGRRSTSEGIRNILDRLRAEVPDIVLRTSLIVGFPGEDEKDFKILYDFVRKYEFDRLGVFTYSREEGTPAYDLKPQIKKSVKESRRNDIMQLQKEIVQRKNESRLEKVYKTLVEGVSEDGIFYYGRTYAEAPDIDGSVYFTSAEPLKFGEFVNVKVLNIDDYDLIGEVINESSK	soluble
MAHHHHHHMTNKSYPTSLVTTPKVRRKSSEHGTFHNSSPKKKNRDIRDFFTANKCNESVEKSWNNNINKRSYHDSPMNDSPNTTLKFLSKKYKTEIN	soluble
TPTRFLVAFDGSATSRKTVEMVSRSPLLQGMQAHVLTAGSDAGEARQALQWAREQLAQGGFDAITHHAAERPADALAAYAGQHGIDMLVMGAYGHSRIRQLVLGSTTTEILSRVSLAVLILR	not soluble
SNAMRLVADSACDIKELRGMVFKAVPLTISTDNEEFCDDGQLDIHRMLDILEKHKGRSYTACPGIDAWLEAFGDDDEIFVVTITAGMSGTYNSAMAARAVYLEEHPQAKVRVIDSKSTGPQMRIILEQLQQMIEEGKKFEEIDGAIDAYMQKTRLFCSLKSLHNLAQNGRVSKVVASAAEVLGISVIGTASSHGTLEAIGKCRGDKKLLVKLQALLDDAGYEGGKLRICHVENEALADKIADMIKQAYGTTDVCVYKAGGLCSYYAERGGIILSCETK	soluble
MLQVCCYTSEGYKYAVGIDLVRFFDTVNHSFLLRILSRTINDGRVISLIHKYLTSGVMIGKHYEPSIEGTPQGAPLSPLLSNILLNELDKELERRGHCFVRYADDSMILCKSKRSAERVCSSITDFSFYFTKGKCRLCVHKTTKEKFKRKVKSLTRRSNSMGYAQRKEILWQTFRGWIGYFKYADMRSLLIPLDQWYRRHLRMCIWKCWKRVKTRFSNLQKCGIPKGKALEHHHHHH	soluble
MGSDKIHHHHHHMNRLRYSVNLSYEILDPTGDFLLIVEAAKTARQSVVSERLALTPPAHAARYTDPLGNRLLRIRANKGPLAIRYEAVVDIDHRLDDGMSLTEVPVAELPFDVLSYLAPSRYCESDRMMEFAMREFGSMRPGYSRVYAIREWVRNHVRFLSRSTNERTSAIDTIVERTGVCRDFSHLMIAICRALSIPARMSSSVDYGADPALGAPDFHAVVEVFLSGGWYLLDPSGVSIPTGLLRIGTGRDAADIPFAAIFGKVESKRPFIEIQPIADPVAGIGLPLATTSAISTW	not soluble
MMSILRSQCQISLDVTLSVPNVSEGIVRLLDPQTNTEIANYPIYKILFCVRGHDGTPESDCFAFTESHYNAELFRIHVFRCEIQEAVSRILYSFATAFRRSAKQTPLSATAAPQTPDSDIFTFSVSLEIKEDDGKGYFSAVPKDKDRQCFKLRQGIDKKIVIYVQQTTNKELAIERCFGLLLSPGKDVRIVTALIRFGSMGKVQMESRMLFGELESKIPTFSSCNEEPPKDKVLFMTTAVDLVITEVQEPVRFLLETKVRVCSPNERLFWPFSKRSTTENFFLKLKQIKQRERKNNTDTLYEVVCLESLEHHHHHHLEHHHHHHLEHHHHHHLEHHHHHHLEHHHHHHLEHHHHHHLEHHHHHH	not soluble
VYAILISDIHVGSKEFCENAFIKFLEWLNGNVETKEEEEIVSRVKYLIIAGDVVDGVGVYPGQYADLTIPDIFDQYEALANLLSHVPKHITMFIAPGNHDAARQAIPQPEFYKEYAKPIYKLKNAVIISNPAVIRLHGRDFLIAHGRGIEDVVGSVPGLTHHKPGLPMVELLKMRHVAPMFGGKVPIAPDPEDLLVIEEVPDVVHMGHVHVYDAVVYRGVQLVNSATWQAQTEFQKMVNIVPTPAKVPVVDIDTAKVVKVLDFSGWC	not soluble
MSLAQQKPVEKVDSDGVYLMPDQMPEFPGGMQAMMKFLTTNIKYPVEAQKKGVSGRVIVQFVIMEDGTLDQAKVVRGVDPLLDEEALRVVKLMPKWKPGMDRGEAVKVRFTAPIMFNLSRSEAQRPTFPELVVPIGQEVENRSLQGVWQSCVAQPGEHGYKILLLPVLKIVSPDQTFMNIMTAGMNGRSNAIIYCQGEYSLPSDGTYVEMVEKSVDPVFIQGVKNEISVERLHDNLIKLSFTVPGQGRKVTEYWFRAPSPDVKIMAEGHHHHHH	soluble
MKLRANIIEKRGTLQVIVSYKDSNGKIRQKWKDTKLKKKGNKKRAEKIRDEFLLELESQLAMECECANPDLLFYDYLLNYLEVSKKQVAFNTYVGYKHYVHNRIYKFFYPKKIKLNRLKPYHLQDFYQYMLNDDCTANTVIHYHAFIRKALQEAVITELISTNVADKVRKPKKKQFVSQVYNQHEILKLLDILSEEKLYLVVLLTAFYGLRRSEVLGLKWSAIDFLNKKIMINHVIIENPENMSQLIKKDQTKNSSSYRTLPLVETIERALVNQAKWQQDNRILLGEDYILKDSEYVFTMEDGRLMKPQYVTHRLSKLIKKNGLKKIRFHDLRHSNASIMLDSGQNMKSIQEWLGHASYSTTANLYTHLTAGVKERAAEALENAFGFKE	not soluble
MGSDKIHHHHHHMSSIFEKYSVRRVINASGKMTILGVSTVDKEVIEAIGEGCKNFFIIEELINKTGEYIANLLGCESALIVSSASAGIAQSVGAMIAKDDMSLVYNVNNPKKQVKREIIIPKGHNVDYGVPVEVMIRLGGGEVVEAGYANMCNKEHIIREINENTAAIMYIKSHHCVQKSMLSVLDAVQVAKEYNLPLIVDAAAEEDLNVYYELGADLVIYSGAKAIEGPSSGLVIGKKKYIDNVKLQSKGIGRAMKIGKENIVGLTCAIERYISNDKVTLKEMEDKLNPFIDKINTIKGVSASITRDSAGREILRGEIDFNEDIINKSTQQIINELRSGEIAIYTRDYKANEGKIEIDIRSVTGSDLDTIYNRIKNIVES	not soluble
